Results: patent US11667697 (VANDERBILT UNIVERSITY, dated 2023)

What was measured:
[1] = molecular target: T1, VACV L1 protein (vaccinia virus, UniProt P07612 1-185); assay: cell-based or functional assay
T1 sequence: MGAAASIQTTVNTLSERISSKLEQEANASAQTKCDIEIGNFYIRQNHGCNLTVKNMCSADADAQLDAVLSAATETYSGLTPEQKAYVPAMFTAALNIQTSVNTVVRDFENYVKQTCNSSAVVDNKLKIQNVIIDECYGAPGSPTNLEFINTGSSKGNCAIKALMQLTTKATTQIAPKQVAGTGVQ

[2] = molecular target: T1, VACV L1 protein; assay: purified antigen ELISA
[3] = molecular target: T2, VACV D8 protein (vaccinia virus, UniProt P04195 1-261); assay: cell-based or functional assay
T2 sequence: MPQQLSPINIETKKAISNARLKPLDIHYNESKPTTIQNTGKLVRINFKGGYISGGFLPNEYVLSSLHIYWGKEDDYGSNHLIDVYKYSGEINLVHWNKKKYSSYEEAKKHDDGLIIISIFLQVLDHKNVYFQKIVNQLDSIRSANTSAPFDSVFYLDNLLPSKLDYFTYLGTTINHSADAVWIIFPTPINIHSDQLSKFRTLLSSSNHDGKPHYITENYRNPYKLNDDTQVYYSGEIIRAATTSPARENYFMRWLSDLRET

[4] = molecular target: T2, VACV D8 protein; assay: lysate ELISA
[5] = molecular target: T2, VACV D8 protein; assay: purified antigen ELISA
[6] = molecular target: T3, VACV A33 protein (vaccinia virus, UniProt P68617 58-185); assay: cell-based or functional assay
[7] = molecular target: T3, VACV A33 protein; assay: lysate ELISA
[8] = molecular target: T3, VACV A33 protein; assay: purified antigen ELISA

B1: MPXV-26 (antibody, V domains shown)
VH: QVQLVQSGGGLIQPGGSLRLSCVVSGFNVATNYMSWVRQAPGKGLEWVSVIYSGGSTYYADSVKGRFTISRDNSKNTVFLQMNSLRPEDTAAYYCAKGGGLGLDYWGQGTLVTVSS
VL: QSALTQPPSASGSPGQSVTITCTGSSSDVGGYNYVSWYQQHPGKAPKVVIYEVNKRPSGVPHRFSGSKSGNTASLTVSGLQAEDEADYYCSSYAGTETVAFGGGTKLTVL
notes: human IgG1, anti-L1
For B1, the “PRNT Emax, VACV MV” value [1] was 95%, the “PRNT Emax, VACV MV+C'” value [1] was 80% and the “PRNT IC50, VACV MV” value [1] was 0.3 µg/mL. For the same binder, the “PRNT IC50, VACV MV+C'” value [1] was 0.7 µg/mL and the EC50 [2] was 0.05 µg/mL.

B2: VACV-128 (antibody, V domains shown)
VH: EVQLVQSGAEVKKPGATVKISCKVSGYTFTDYYMHWVQQAPGKGLKWMGLLDPLDGETIYSEKFQGKVTITADTSTDTAYMELSSLRSEDTAVYYCARELTGYLNYWGQGTLVTVSS
VL: DIQMTQSPSSLSASVGDRVTITCRASPGICNYLAWYQHKPGKVPKLLIYAASTLQSGVPSRFTGVGSGTNFTLTINNLPPENVATYYCQKYNSAPHTFGQGTKVDIK
notes: human IgG1, anti-D8
With B2 the “PRNT Emax, VACV MV+C'” value [3] was 86%, the “PRNT IC50, VACV MV+C'” value [3] was 0.5 µg/mL and the EC50 [4] was 0.3 µg/mL. For the same binder, the EC50 [5] was 1.1 µg/mL.

B3: VACV-22 (antibody, V domains shown)
VH: QVQLVESGGGVVQPGRSLRLSCAASGFTFSNSGMHWVRQAPGKGLEWVAVIWFDGTNKYYADSVKGRFTISRDNSKNTLYLQMNSLRAEDTAVYYCARVPCGGDCYSGYLQHWGQGTLVTVSS
VL: AIVMTQSPATLSVSPGERATLSCRASQSVSSTLAWYQQKPGQAPRLLIYGASTKATGIPARFSGSGSGTEFTLTISSLQSEDFAVYYCQHYNNWPPLLTFGGGTKVDIK
notes: human IgG1, anti-A33
In the case of B3, the “PRNT Emax, VACV EV+C'” value [6] is reported as 87%, the “PRNT IC50, VACV EV+C'” value [6] is reported as 9.7 µg/mL and the EC50 [7] is reported as over 0.008 µg/mL. For the same binder, the EC50 [8] was 0.03 µg/mL.

B4: VACV-304 (antibody, V domains shown)
VH: EVQLVESGGGLVQPGGSLRLSCVVSGFTFSNYWMSWVRQAPGKGLEWVANIKQDGSKKYYVDSVTGRFTISRDNAKNSLYLQMNSLRAEDTAVYYCATLNLELAVDAISEALKWGQGTLVTVSS
VL: SYELTQPPSVSVSPGQTARITCSGDALPKQFAYWYQQKPGQAPVVMIYKDSERPSGIPERFSGSSSGTTVTLTISGVQAEDEADYYCQSVDNSGTYEVFGGGTQLTVL
notes: human IgG1, anti-D8
B4 was tested, and the “PRNT Emax, VACV MV+C'” value [3] was 69%, the “PRNT IC50, VACV MV+C'” value [3] was 0.02 µg/mL and the EC50 [4] was 0.04 µg/mL. It also gave an EC50 [5] of 0.05 µg/mL.

B5: VACV-249 (antibody, V domains shown)
VH: QVQLVESGPGLVKPSQTLSLTCTVSGGSISRGIYYWSWIRQPAGKGLEWIGRIYTSGSTNYNPSLKSRVTISVDTSKNQFSLKLSSVTAADTAVYYCARDGWYGWYLDLWGRGTLVTVSS
VL: EIVMTQSPATLSVSPGERATLSCRASQSVSSDLAWYQQKPGQAPRLLIYGASTRATGIPARFSGSGSGTEFTLTISSLQSEDFAVYYCQQYNNWPGTFGGGTKVDIK
notes: human IgG1, anti-D8
B5 was tested, and the “PRNT Emax, VACV MV+C'” value [3] was 70%, the “PRNT IC50, VACV MV+C'” value [3] was 0.2 µg/mL and the EC50 [4] was 0.3 µg/mL. The EC50 [5] was 2.8 µg/mL.

B6: MPXV-56 (antibody, V domains shown)
VH: QVQLQQSGPGLVKPSQTLSLTCAISGDSVSSNSAAWIWIRQSPSRGLEWLGTTYYRSEWYSDYPASVKSRVTINADTSKNQFSLQLNSVTPEDTAVYYCARITVGYNSPHLRVTRGWLDPWGPGNP
VL: not shown
notes: human IgG2, anti-A33
B6 was tested, and the “PRNT Emax, VACV EV+C'” value [6] was 56%, the “PRNT IC50, VACV EV+C'” value [6] was 0.16 µg/mL and the EC50 [7] was over 0.07 µg/mL. It also gave an EC50 [8] of 0.06 µg/mL.

B7: VACV-34 (antibody, V domains shown)
VH: QVQLVESGGGLVQPGRSLRLSCAASGFTFDDYAMHWVRQAPGKGLEWVSGLSWNSGSIGYADSVKGRFTISRDNAKNSLYLQMNSLRAEDTALYYCAKETEKYYYDSSGYDYWGQGTLVTVSS
VL: EIVLTQSPGTLSLSPGERATLSCRASQSVSSIYLAWYQQKPGQAPRLLIYGASSRATGIPDRFSGSGSGTDFTLTISRLEPEDFAVYYCQQYGSRGTFGQGTKLEIK
notes: human IgG1, anti-L1
For B7, the “PRNT Emax, VACV MV” value [1] was 76%, the “PRNT Emax, VACV MV+C'” value [1] was 78% and the “PRNT IC50, VACV MV” value [1] was 3.3 µg/mL. For the same binder, the “PRNT IC50, VACV MV+C'” value [1] was 0.96 µg/mL and the EC50 [2] was 0.04 µg/mL.
